Source: US20240116985A1 (published 2024)
Starred links: 1 amine or outer side, 2 acyl side, 3 side chain; linkers in the order of their positions; H or OH if unused. Positions of bridges follow the written chain, without caps; N, C: chain ends. Non-standard residues stand in square brackets, D forms with d. Primed or numbered codes have the meaning given here. (MePipAc)GA = (S)-2-amino-3-(N-(carboxymethyl)-2-(4-methylpiperazin-1-yl)acetamido)propanoic acid, CN1CCN(CC(=O)N(CC(=O)[*:3])C[C@H](N[*:1])C(=O)[*:2])CC1; PyrS2″ = (S)-3-amino-1-((pent-4-en-1-yloxy)carbonyl)pyrrolidine-3-carboxylic acid (stapling residue), C=CCCCOC(=O)N1CC[C@@](N[*:1])(C(=O)[*:2])C1; (Me2NPr)GA = (S)-2-amino-3-(N-(carboxymethyl)-3-(dimethylamino)propanamido)propanoic acid, CN(C)CCC(=O)N(CC(=O)[*:3])C[C@H](N[*:1])C(=O)[*:2]; (MorphAc)GA = (S)-2-amino-3-(N-(carboxymethyl)-2-morpholinoacetamido)propanoic acid, O=C(CN1CCOCC1)N(CC(=O)[*:3])C[C@H](N[*:1])C(=O)[*:2]; B5(4) = 2,2-bis(4-pentenyl)glycine = 2-amino-2-(pent-4-en-1-yl)hept-6-enoic acid (stitching residue), C=CCCCC(CCCC=C)(N[*:1])C(=O)[*:2]; PyrS2 = (S)-3-amino-1-((pent-4-en-1-yloxy)carbonyl)pyrrolidine-3-carboxylic acid, C=CCCCOC(=O)N1CC[C@@](N[*:1])(C(=O)[*:2])C1; B5(22) = 2-amino-2-(pent-4-en-1-yl)hept-6-enoic acid (two alkene side chains), C=CCCCC(CCCC=C)(N[*:1])C(=O)[*:2]; B5(3) = 2,2-bis(4-pentenyl)glycine (stitching residue), C=CCCCC(CCCC=C)(N[*:1])C(=O)[*:2]; Phe(3-COOH) = N[C@@H](Cc1cccc(C(=O)O)c1)C(=O)O; 2F3MeF = Cc1cccc(C[C@H](N[*:1])C(=O)[*:2])c1F; Phe(2-CF3) = N[C@@H](Cc1ccccc1C(F)(F)F)C(=O)O; Phe(3-Cl) = N[C@@H](Cc1cccc(Cl)c1)C(=O)O; Phe(4-Cl) = N[C@@H](Cc1ccc(Cl)cc1)C(=O)O; Bta = N[C@@H](Cc1csc2ccccc12)C(=O)O; αAllylPro = C=CC[C@@]1(C(=O)O)CCCN1; tBuAla = CC(C)(C)C[C@H](N)C(=O)O; 3Thi = N[C@@H](Cc1ccsc1)C(=O)O; PyrS2(4) = not defined here; 4ClBztA = not defined here; Ac3c = NC1(C(=O)O)CC1

T1: B-cat-Halo (UniProt P35222 1-781)
T1 sequence (looked up): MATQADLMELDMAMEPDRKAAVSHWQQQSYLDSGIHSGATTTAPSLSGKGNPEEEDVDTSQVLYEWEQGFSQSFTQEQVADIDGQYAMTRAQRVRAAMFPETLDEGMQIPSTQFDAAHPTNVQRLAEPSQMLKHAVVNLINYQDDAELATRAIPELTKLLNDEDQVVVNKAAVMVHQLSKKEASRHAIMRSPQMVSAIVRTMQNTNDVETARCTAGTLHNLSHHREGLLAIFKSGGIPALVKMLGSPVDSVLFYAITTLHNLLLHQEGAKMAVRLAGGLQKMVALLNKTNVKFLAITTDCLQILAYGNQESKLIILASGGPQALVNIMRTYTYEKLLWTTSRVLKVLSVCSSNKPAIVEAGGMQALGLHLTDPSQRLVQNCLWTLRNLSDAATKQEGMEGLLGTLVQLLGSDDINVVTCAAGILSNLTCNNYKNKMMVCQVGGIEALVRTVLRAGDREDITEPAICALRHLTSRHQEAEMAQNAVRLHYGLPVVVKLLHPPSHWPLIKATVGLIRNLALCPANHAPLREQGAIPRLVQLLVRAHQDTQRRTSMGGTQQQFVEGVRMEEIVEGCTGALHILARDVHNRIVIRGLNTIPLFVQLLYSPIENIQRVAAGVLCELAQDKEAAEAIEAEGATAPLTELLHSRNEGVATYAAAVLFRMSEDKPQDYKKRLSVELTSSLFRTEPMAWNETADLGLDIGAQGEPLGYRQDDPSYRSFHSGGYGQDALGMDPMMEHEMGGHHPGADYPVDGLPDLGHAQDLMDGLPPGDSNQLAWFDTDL

T2: B-cat-Halo (beta-catenin HaloTag fusion expressed in HEK293 cells) (UniProt P35222 1-781)
T2 sequence (looked up): T1 sequence (looked up)


The binders below were run against T1, B-cat-Halo (assay: cell-based or functional assay).

| Binder | NanoBRET Abs IC50 |
| --- | --- |
| Ac-[αAllylPro]D[tBuAla][B5(3)]D[(PfBz)GA]AAFL[PyrS2(4)][3Thi][Bta]Q-NH2 (staple 1-4, 4-11; reading uncertain) [I-2242] | 21.4 µM |
| Ac-[αAllylPro]D[tBuAla][B5(22)]D[(MePipAc)GA]AAFL[PyrS2][3Thi][Bta]Q-NH2 (staple 1-4, 4-11) [I-2240] | > 20 µM |
| Ac-[αAllylPro]D[tBuAla][B5(3)]D[Phe(3-COOH)]QAFV[PyrS2(4)][3Thi][Phe(3-Cl)]A-NH2 (staple 1-4, 4-11; reading uncertain) [I-2225] | 7.8 µM |
| Ac-[αAllylPro]D[tBuAla][B5(3)]D[Phe(3-COOH)]AAFL[PyrS2″][2F3MeF][Phe(3-Cl)]S-NH2 (staple 1-4, 4-11) [I-2226] | 10.6 µM |
| Ac-[αAllylPro]D[tBuAla][B5(3)]D[Phe(3-COOH)]AAFL[PyrS2″][3Thi][Phe(3-Cl)]Q-NH2 (staple 1-4, 4-11) [I-2224] | 14.2 µM |
| Ac-[αAllylPro]D[tBuAla][B5(3)]D[Phe(3-COOH)]QAFL[PyrS2″][2F3MeF][Phe(3-Cl)]A-NH2 (staple 1-4, 4-11) [I-2227] | 6.3 µM |
| Ac-[αAllylPro]D[tBuAla][B5(22)]D[(Me2NPr)GA]AAFL[PyrS2][3Thi][Bta]Q-NH2 (staple 1-4, 4-11) [I-2234] | > 20 µM |
| Ac-[αAllylPro]D[tBuAla][B5(3)]D[Phe(3-COOH)]QAFL[PyrS2″][2F3MeF][Phe(4-Cl)]A-NH2 (staple 1-4, 4-11) [I-2223] | 9 µM |
| Ac-[αAllylPro]D[tBuAla][B5(22)]D[(MorphAc)GA]AAFL[PyrS2][3Thi][Bta]Q-NH2 (staple 1-4, 4-11) [I-2239] | 31.9 µM |

These binders were tested against T2, B-cat-Halo (beta-catenin HaloTag fusion …) (assay: cell-based or functional assay).

| Binder | NanoBRET Abs IC50 |
| --- | --- |
| Ac-[αAllylPro]D[tBuAla][B5(4)]NT[Ac3c]AFN[PyrS2″][3Thi][Bta]Q-NH2 (staple 1-4, 4-11) [I-2492] | > 20 µM |
| Ac-[αAllylPro]D[tBuAla][B5(4)]D[Phe(3-COOH)]AAFL[PyrS2″][Phe(2-CF3)][7FBztA]Q-NH2 (staple 1-4, 4-11) [I-2488] | 3.6 µM |
| Ac-[αAllylPro]D[tBuAla][B5(4)]D[Phe(3-COOH)]QAFL[PyrS2″][Phe(2-CF3)][7FBztA]A-NH2 (staple 1-4, 4-11) [I-2489] | 7.4 µM |
| Ac-[αAllylPro]D[tBuAla][B5(4)]D[Phe(3-COOH)]AAFL[PyrS2″][Phe(2-CF3)][7ClBztA]Q-NH2 (staple 1-4, 4-11) [I-2486] | 3.7 µM |
| Ac-[αAllylPro]D[tBuAla][B5(4)]D[Phe(3-COOH)]AAFL[PyrS2″][Phe(2-CF3)][4ClBztA]Q-NH2 (staple 1-4, 4-11; reading uncertain) [I-2490] | 6.4 µM |
| Ac-[αAllylPro]D[tBuAla][B5(4)]D[Phe(3-COOH)]QAFL[PyrS2″][Phe(2-CF3)][7ClBztA]A-NH2 (staple 1-4, 4-11) [I-2487] | 4.2 µM |
| Ac-[αAllylPro]D[tBuAla][B5(4)]D[Phe(3-COOH)]QAFL[PyrS2″][Phe(2-CF3)][4ClBztA]A-NH2 (staple 1-4, 4-11; reading uncertain) [I-2491] | 6.1 µM |
